Tests used:
[1] = biological target: CLDN18.1 expressed on HEK 293 cells (UniProt P56856); experiment: FACS, secondary antibody alone on HEK 293 cells expressing CLDN 18.1
[2] = biological target: human Claudin 18.2 (CLDN18.2) expressed on cells (human) (UniProt P56856); experiment: FACS, secondary antibody alone on HEK 293 cells expressing CLDN 18.2

MFI [1]: 18
MFI [2]: 53
Substance: Sec. antibody
